Data on five molecules can be found in patent publication EP2785382B1 (IBC Pharmaceuticals, Inc., dated 2019).

In assay [1] the target is IGF-1R on cells (human) (UniProt P08069). Description: cell-based or functional assay.
For assay [2] the target is unchanged. Description: 125I-IGF-1 binding to MCF-7L cells with antibody at 100 ng/mL.
The target is the same in assay [3]. As to the kind of experiment: 125I-IGF-1 binding to MCF-7L cells with antibody at 1000 ng/mL.
Assay [4] has the same target. Description: flow cytometry (FACScan), MCF-7 cells.
The target is the same in assay [5]. Description: flow cytometry (FACScan), DU 145 cells.
Assay [6] has the same target. Description: flow cytometry (FACScan), ME-180 cells.
Assay [7] deals with T1, recombinant human IGF-1R (R&D Systems, Catalog # 391-GR) (human, UniProt P08069 31-935).
T1 construct: extracellular domain; immobilized on ELISA plates or polystyrene beads; also called rhIGF-1R; IGF-1R-coated beads
T1 sequence (P08069 31-935): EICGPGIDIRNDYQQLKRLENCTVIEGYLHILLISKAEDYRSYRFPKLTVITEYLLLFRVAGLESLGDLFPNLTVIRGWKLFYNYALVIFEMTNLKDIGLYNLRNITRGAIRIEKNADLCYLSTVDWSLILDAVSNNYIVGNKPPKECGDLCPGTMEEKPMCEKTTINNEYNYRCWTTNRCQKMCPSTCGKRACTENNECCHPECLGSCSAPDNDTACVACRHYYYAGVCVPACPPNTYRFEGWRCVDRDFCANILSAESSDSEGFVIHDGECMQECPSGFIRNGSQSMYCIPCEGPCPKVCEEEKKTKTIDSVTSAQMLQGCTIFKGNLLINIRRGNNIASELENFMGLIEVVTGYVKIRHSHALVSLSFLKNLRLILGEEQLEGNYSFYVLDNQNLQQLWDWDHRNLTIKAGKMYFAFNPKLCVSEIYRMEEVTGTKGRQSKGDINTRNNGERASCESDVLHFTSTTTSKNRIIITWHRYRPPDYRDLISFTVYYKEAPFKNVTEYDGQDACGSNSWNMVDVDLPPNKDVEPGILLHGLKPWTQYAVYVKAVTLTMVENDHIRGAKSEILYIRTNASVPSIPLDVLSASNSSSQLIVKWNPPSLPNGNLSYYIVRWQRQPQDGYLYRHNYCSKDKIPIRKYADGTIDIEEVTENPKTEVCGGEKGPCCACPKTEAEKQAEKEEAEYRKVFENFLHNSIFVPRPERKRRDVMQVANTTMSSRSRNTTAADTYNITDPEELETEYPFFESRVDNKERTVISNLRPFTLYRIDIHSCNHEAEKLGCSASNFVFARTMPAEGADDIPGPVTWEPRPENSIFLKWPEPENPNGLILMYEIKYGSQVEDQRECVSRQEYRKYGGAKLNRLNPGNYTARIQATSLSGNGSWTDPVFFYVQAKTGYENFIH
Description: rhIGF-1R on polystyrene beads (not shown).

In assay [8] the target is recombinant human IGF-1R (R&D Systems, Catalog # 391-GR) (human) (UniProt P08069). As to the kind of experiment: ELISA on immobilized rhIGF-1R (not shown); cR1 from clones 709.2D2 and 710.2G2, same affinity.
Chain of recombinant human IGF-1R (R&D Systems, Catalog # 391-GR) (human) (P08069 31-935): as above

Chain of IGF-1R on cells (human) (P08069 31-1367): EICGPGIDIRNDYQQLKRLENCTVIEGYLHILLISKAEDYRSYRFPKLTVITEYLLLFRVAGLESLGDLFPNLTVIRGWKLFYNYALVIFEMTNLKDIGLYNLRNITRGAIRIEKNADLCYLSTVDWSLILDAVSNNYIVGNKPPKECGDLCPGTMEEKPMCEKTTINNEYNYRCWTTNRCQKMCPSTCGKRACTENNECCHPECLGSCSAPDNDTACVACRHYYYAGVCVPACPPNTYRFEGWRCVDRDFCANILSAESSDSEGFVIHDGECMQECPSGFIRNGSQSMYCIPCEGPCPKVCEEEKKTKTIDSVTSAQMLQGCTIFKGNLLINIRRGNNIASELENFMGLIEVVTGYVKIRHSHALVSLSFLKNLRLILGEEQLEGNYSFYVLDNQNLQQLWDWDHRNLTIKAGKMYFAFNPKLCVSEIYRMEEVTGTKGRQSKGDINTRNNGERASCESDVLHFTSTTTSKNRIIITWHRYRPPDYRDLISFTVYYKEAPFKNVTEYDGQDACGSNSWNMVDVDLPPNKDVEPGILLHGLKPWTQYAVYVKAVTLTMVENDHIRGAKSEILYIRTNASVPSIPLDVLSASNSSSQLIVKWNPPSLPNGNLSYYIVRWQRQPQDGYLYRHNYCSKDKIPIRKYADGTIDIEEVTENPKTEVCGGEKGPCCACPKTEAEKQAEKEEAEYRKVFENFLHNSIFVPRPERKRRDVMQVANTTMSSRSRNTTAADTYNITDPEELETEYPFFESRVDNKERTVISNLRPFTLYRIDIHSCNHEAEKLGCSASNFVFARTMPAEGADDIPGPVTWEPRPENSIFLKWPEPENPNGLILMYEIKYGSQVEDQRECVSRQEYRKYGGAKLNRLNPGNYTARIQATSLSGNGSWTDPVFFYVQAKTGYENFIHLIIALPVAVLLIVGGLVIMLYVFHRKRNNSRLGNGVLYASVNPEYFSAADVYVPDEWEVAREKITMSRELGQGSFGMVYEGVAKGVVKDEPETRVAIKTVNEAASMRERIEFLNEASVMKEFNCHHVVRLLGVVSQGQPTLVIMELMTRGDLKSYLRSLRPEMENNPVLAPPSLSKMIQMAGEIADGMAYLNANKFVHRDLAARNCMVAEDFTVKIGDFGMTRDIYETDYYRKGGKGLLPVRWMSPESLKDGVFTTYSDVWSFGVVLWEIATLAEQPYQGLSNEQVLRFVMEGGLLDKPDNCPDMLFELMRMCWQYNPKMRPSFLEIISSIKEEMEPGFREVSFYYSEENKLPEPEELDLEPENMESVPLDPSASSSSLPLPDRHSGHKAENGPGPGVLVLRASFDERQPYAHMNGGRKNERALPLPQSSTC

In assay [1], MAB391 (antibody) returned a maximum growth inhibition, 786-O cells (8 nM), serum-free, IGF-1 100 ng/mL, MTS of 34%; a maximum growth inhibition, ACHN cells (200 nM), serum-free, IGF-1 100 ng/mL, MTS of 48%; a maximum growth inhibition, Caki-2 cells (8 nM), serum-free, IGF-1 100 ng/mL, MTS of 50%. The % binding of 125I-IGF-1 to MCF-7L in assay [2] came out at 54%. In assay [3], this molecule gave a % binding of 125I-IGF-1 to MCF-7L of 38%.

B1: hR1 (antibody, IgG1, V domains shown)
VH: QVQLQESGGGVVQPGRSLRLSCSASGFTFSDYYMYWVRQAPGKGLEWVAYITNYGGSTYYPDTVKGRFTISRDNAKNTLFLQMDSLRPEDTGVYFCARQSNYDYDGWFAYWGQGTPVTVSS
VL: DIQLTQSPSSLSASVGDRVTITCKASQEVGTAVAWYQQKPGKAPKLLIYWASTRHTGVPSRFSGSGSGTDFTFTISSLQPEDIATYFCQQYSNYPLTFGQGTKVEIKR
notes: also called humanized anti-IGF-1R; hR1 IgG
In assay [1], B1 returned a concentration giving complete receptor down-regulation of 10 nM; a maximum growth inhibition, 786-O cells (8 nM), serum-free, IGF-1 100 ng/mL, MTS of 26%; a maximum growth inhibition, ACHN cells (200 nM), serum-free, IGF-1 100 ng/mL, MTS of 3%; a maximum growth inhibition, Caki-2 cells (8 nM), serum-free, IGF-1 100 ng/mL, MTS of 33%. In assay [4], this molecule registered a % Positive of 89.2% and an MFI of 9.93. For the same molecule, in assay [5], the % Positive stood at 30.4% and the MFI came to 5.33. In assay [6], the % Positive is 10.7% and the MFI was 3.65. The binding result in assay [7] is on record as “binds”.

B2: 1R-E1 (bispecific antibody, part only; not given: hRS7 Fab-DDD2 module, not shown: a dimerising Fc or GST)
heavy (part 1 of 2): B1 VH
heavy (part 2 of 2): GSGGGGSGGCGQIEYLAKQIVDNAIQQAGC
light: B1 VL
In assay [1], B2 gave a concentration substantially reducing the level of IGF-1R in MCF-7, DU-145 and LnCap of 0.1 nM.

B3: Hex-hR1 (antibody, V domains shown, not shown: a dimerising Fc or GST; small tags and cut ends)
VH: B1 VH
VL: DIQLTQSPSSLSASVGDRVTITCKASQEVGTAVAWYQQKPGKAPKLLIYWASTRHTGVPSRFSGSGSGTDFTFTISSLQPEDIATYFCQQYSNYPLTFGQGTKVEIK
modifications: DNL complex: one IgG-AD2 and four Fab-DDD2, disulfide-locked through AD2 and DDD2. All six Fabs carry the same hR1 VH/VK [CUT]
Regarding B3, in assay [1], the maximum growth inhibition, 786-O cells (8 nM), serum-free, IGF-1 100 ng/mL, MTS amounted to 35%; the maximum growth inhibition, ACHN cells (200 nM), serum-free, IGF-1 100 ng/mL, MTS stood at 48%; the maximum growth inhibition, Caki-2 cells (8 nM), serum-free, IGF-1 100 ng/mL, MTS is 43%.

B4: cR1 (antibody, from another filing, V domains shown)
VH: EVKLVESGGGLVQPGGSLKLSCATSGFTFSDYYMYWVRQTPEKRLEWVAYITNYGGSTYYPDTVKGRFTISRDNAKNTLYLQMSRLRSEDTAMYFCARQSNYDYDGWFAYWGQGTTVTVSS
VL: DIVMTQSHKFMSTSVGDRVSITCKASQEVGTAVAWYQQKPGQSPKLLIYWASTRHTGVPDRFTGSGSGTDFTLTISNVQSEDLADYFCQQYSNYPLTFGAGAKLELKR
As for B4, the dissociation constant (Kd) in assay [8] came to 0.1 nM.
